In patent publication EP1688435A1 (Boehringer Ingelheim International GmbH, dated 2006):

Columns and labels:
Experiment in all cases: immunoprecipitation with myc antibodies, SDS-PAGE and silver staining (Figure 3B)
[1] = target: human cohesin subunit Smc3 (human, UniProt Q9UQE7 1-1217)
[2] = target: T1, human cohesin subunit SA2 (cell-cycle state not stated) (human, UniProt Q8N3U4 1-1231)
T1 construct: Endogenous protein from HeLa cells
T1 sequence: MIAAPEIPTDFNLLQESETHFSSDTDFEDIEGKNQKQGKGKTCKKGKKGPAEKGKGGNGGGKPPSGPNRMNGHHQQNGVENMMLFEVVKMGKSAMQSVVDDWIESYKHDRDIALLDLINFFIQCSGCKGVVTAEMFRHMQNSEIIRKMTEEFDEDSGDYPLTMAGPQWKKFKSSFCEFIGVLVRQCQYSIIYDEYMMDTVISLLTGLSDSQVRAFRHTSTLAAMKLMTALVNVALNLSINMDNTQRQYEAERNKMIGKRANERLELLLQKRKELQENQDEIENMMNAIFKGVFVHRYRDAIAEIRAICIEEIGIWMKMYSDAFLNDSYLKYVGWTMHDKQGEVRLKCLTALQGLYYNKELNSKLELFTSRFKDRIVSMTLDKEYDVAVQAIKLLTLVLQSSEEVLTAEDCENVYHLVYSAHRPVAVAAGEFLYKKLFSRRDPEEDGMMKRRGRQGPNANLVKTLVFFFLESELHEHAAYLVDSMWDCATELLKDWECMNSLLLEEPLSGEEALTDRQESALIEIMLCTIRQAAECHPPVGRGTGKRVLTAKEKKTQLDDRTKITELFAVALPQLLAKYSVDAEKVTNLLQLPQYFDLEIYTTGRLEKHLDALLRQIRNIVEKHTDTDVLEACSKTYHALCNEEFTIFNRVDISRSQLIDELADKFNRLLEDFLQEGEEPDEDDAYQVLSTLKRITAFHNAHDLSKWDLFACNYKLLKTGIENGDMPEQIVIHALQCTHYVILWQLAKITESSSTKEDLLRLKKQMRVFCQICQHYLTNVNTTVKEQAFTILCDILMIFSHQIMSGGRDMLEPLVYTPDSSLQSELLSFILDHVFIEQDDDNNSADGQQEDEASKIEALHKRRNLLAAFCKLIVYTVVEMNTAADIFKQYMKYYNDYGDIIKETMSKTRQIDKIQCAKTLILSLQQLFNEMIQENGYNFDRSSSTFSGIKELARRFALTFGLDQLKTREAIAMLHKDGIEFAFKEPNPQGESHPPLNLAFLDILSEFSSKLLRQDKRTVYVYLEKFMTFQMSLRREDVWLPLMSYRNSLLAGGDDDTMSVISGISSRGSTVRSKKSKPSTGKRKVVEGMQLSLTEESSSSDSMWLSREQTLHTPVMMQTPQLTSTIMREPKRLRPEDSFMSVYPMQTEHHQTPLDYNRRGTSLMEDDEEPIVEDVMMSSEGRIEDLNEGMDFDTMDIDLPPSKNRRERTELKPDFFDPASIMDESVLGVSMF

[3] = target: T2, human cohesin subunit Smc1 (human, UniProt Q14683 1-1233)
T2 construct: also called Smcl
T2 sequence (looked up): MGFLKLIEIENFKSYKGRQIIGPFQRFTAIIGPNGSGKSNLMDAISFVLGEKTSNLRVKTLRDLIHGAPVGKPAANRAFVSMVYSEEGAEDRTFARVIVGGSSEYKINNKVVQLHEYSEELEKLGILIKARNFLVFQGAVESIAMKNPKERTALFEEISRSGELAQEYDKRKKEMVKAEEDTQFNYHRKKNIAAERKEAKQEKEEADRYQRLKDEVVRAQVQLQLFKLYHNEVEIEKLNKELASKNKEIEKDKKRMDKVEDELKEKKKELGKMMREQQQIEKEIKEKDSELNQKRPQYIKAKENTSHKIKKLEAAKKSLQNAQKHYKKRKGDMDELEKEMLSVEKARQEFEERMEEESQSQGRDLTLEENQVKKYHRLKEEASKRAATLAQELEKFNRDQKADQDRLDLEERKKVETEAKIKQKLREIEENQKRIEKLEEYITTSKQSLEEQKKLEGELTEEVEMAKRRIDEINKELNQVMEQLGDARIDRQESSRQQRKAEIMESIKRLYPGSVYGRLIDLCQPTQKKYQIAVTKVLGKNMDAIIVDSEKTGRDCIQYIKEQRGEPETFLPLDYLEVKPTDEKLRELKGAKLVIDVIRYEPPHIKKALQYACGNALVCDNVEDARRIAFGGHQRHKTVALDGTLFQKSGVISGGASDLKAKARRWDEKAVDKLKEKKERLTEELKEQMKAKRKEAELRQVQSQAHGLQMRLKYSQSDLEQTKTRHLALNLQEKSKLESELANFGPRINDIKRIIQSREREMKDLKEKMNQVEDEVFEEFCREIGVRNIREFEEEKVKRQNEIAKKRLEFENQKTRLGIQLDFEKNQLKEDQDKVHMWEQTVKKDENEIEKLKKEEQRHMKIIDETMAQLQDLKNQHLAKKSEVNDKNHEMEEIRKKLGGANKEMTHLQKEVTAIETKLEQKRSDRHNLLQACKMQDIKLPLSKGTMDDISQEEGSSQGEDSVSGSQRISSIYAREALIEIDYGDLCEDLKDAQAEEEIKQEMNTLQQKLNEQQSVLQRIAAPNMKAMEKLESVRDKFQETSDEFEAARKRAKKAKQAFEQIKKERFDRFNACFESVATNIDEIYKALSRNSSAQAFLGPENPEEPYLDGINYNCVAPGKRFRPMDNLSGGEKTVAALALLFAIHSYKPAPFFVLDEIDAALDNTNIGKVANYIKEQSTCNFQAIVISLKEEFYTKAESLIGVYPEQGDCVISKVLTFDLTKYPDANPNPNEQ

[4] = target: T3, human cohesin subunit SA1 (cell-cycle state not stated) (human, UniProt Q8WVM7 1-1258)
T3 sequence (looked up): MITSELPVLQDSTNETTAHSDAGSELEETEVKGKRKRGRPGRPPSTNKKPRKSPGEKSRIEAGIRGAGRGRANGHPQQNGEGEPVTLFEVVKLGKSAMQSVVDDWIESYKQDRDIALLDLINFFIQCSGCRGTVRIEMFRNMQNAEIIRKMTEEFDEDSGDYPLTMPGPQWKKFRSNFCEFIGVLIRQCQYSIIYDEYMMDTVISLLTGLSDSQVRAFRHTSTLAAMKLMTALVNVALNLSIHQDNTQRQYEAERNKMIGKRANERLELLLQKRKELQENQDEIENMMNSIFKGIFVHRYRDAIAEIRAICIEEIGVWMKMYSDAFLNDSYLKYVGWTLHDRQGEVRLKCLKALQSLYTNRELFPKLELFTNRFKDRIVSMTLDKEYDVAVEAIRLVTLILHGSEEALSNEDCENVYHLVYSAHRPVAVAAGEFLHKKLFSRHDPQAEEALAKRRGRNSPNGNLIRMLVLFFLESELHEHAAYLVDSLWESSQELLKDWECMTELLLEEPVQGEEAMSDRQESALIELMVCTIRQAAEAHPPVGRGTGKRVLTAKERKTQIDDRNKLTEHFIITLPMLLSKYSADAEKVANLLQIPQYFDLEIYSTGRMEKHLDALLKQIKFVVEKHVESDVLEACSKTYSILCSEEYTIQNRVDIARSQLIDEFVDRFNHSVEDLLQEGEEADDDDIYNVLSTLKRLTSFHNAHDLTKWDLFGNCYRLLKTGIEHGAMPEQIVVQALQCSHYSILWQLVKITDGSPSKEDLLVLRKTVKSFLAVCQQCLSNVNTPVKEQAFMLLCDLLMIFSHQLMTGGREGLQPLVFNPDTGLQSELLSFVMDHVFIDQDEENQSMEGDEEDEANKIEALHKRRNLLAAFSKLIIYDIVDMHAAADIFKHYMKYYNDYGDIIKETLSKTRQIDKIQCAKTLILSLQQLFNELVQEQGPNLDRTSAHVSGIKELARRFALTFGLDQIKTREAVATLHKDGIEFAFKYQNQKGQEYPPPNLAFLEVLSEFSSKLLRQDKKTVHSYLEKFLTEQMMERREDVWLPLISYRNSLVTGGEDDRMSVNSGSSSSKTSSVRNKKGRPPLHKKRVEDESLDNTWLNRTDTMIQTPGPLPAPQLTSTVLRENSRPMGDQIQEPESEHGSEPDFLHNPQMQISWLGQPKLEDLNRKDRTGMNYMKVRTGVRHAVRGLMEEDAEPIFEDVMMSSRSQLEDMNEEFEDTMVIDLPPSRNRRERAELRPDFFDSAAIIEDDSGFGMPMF

Sequence of human cohesin subunit Smc3 (Q9UQE7 whole entry): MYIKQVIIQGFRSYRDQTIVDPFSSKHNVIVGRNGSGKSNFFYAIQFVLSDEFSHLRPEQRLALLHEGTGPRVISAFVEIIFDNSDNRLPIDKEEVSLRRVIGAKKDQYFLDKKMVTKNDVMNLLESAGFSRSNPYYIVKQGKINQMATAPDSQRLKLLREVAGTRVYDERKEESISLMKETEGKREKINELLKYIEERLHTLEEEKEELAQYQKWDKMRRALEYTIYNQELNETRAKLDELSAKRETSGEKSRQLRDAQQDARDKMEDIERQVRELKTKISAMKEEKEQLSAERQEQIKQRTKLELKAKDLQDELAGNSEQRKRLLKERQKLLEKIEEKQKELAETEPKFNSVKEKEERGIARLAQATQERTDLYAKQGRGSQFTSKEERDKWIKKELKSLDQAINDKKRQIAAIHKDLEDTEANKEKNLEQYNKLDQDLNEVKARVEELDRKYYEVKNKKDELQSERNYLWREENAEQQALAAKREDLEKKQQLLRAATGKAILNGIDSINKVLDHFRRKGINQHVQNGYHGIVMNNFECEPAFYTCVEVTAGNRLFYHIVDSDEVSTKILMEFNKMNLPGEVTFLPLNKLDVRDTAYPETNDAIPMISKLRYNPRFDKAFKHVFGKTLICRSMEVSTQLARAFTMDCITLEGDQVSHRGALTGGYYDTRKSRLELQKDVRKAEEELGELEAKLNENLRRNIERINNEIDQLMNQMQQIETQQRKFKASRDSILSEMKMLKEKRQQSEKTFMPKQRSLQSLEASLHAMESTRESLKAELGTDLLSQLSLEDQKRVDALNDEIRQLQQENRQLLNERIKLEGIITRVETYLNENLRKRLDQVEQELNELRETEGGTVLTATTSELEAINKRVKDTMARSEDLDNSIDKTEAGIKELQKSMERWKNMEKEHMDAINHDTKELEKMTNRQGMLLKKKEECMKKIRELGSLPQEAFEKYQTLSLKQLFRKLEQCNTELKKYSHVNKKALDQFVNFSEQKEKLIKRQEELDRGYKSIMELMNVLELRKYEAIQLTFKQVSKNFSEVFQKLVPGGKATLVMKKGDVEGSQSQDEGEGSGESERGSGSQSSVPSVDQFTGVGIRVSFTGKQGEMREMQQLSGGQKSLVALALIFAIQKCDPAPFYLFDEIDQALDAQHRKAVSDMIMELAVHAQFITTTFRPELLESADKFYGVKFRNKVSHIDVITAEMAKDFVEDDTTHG

binding result [1]: binds | binding result [2]: binds | binding result [3]: binds | binding result [4]: binds
B1: Scc1-S454A-myc expressed in HeLa tet-on cells (cell-cycle state not stated) (other)
chain: MFYAHFVLSKRGPLAKIWLAAHWDKKLTKAHVFECNLESSVESIISPKVKMALRTSGHLLLGVVRIYHRKAKYLLADCNEAFIKIKMAFRPGVVDLPEENREAAYNAITLPEEFHDFDQPLPDLDDIDVAQQFSLNQSRVEEITMREEVGNISILQENDFGDFGMDDREIMREGSAFEDDDMLVSTTTSNLLLESEQSTSNLNEKINHLEYEDQYKDDNFGEGNDGGILDDKLISNNDGGIFDDPPALSEAGVMLPEQPAHDDMDEDDNVSMGGPDSPDSVDPVEPMPTMTDQTTLVPNEEEAFALEPIDITVKETKAKRKRKLIVDSVKELDSKTIRAQLSDYSDIVTTLDLAPPTKKLMMWKETGGVEKLFSLPAQPLWNNRLLKLFTRCLTPLVPEDLRKRRKGGEADNLDEFLKEFENPEVPREDQQQQHQQRDVIDEPIIEEPSRLQEAVMEASRTNIDESAMPPPPPQGVKRKAGQIDPEPVMPPQQVEQMEIPPVELPPEEPPNICQLIPELELLPEKEKEKEKEKEDDEEEEDEDASGGDQDQEERRWNKRTQQMLHGLQRALAKTGAESISLLELCRNTNRKQAAAKFYSFLVLKKQQAIELTQEEPYSDIIATPGPRFHII
notes: not shown: 9xmyc tag at the C-terminus
